The results in this text go back to US6262024.

The target of this test is N-methyl-D-aspartate (NMDA) receptor (rat).

Turning to neuron regulatory factor (NRF) from rat, the anterior thalamic neuron survival over controls was 700%.
